Tests used:
Experiment in all cases: cell_activity
[1] = test system: ZnF-MLT transposase, non-covalent linker (Myotis lucifugus); conditions: HEK293 landing pad, amplicon-seq
[2] = test system: ZnF-MLT transposase fusion, covalent linker (Myotis lucifugus); conditions: amplicon-seq
[3] = test system: MLT K350A/D416A S8P,C13R,K350A,D416A (Myotis lucifugus); conditions: HEK293; integration >=10% GFP
[4] = test system: MLT K350A S8P,C13R,K350A (Myotis lucifugus); conditions: HEK293; integration >=10% GFP

Substance | activity (% of reads on target) [1] | activity (% of reads on target) ([2]; HEK293 landing pad) | activity (% GFP excision) [3] | activity (% GFP excision) [4] | activity (% of reads on target) ([2]; HEK293 plasmid landing pad, TTAA 15 bp from site)
Landing pad, single ZnF site next to TTAA | 12 | 24 |  |  | 
TTAACACTTGGATTGCGGGAAACGAGTTAAGTCGGCTCGCGTGAATTGCGCGTACTCCGCGGGAGCCGTCTTAACTCGGTTCATATAGATTTGCGGTGGAGTGCGGGAAACGTGTAAACTCGGGCCGATTGTAACTGCGTATTACCAAATATTTGTT / AATTATTTATGTACTGAATAGATAAAAAAATGTCTGTGATTGAATAAATTTTCATTTTTTACACAAGAAACCGAAAATTTCATTTCAATCGAACCCATACTTCAAAAGATATAGGCATTTTAAACTAACTCTGATTTTGCGCGGGAAACCTAAATAATTGCCCGCGCCATCTTATATTTTGGCGGGAAATTCACCCGACACCGTAGTGTTAA [MLT donor left and right ITRs] |  |  | > 20 | > 20 | 
CTCCACTGTGGGGTGCCGCAGTGGAGATGACTTGTTTGTTAACGGCACTTTAACAG (double strand) [Landing pad, ZnF sites on both sides of TTAA] | 29 |  |  |  | 42

— US20250002876
